Positions count from the first letter of the chain named. Each block holds one binder with its values, some of them ahead of it.
Experiments:
human CXCL13 [1] = molecular target: T1, human CXCL13 (human, UniProt O43927 23-109); test: SPR (Biacore), recombinant human CXCL13; printed as Affinity (Biacore), nM
T1 construct: Recombinant protein bought from Peprotech (#300-47); In some assays native human CXCL13 from supernatant of IFN-gamma-stimulated THP-1 cells was used; this is said in the assay field; also called recombinant human CXCL13; rhuCXCL13
T1 sequence: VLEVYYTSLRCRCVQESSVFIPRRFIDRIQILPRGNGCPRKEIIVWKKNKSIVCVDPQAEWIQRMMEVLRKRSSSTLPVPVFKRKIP

mouse CXCL13 [2] = molecular target: T2, mouse CXCL13 (mouse, UniProt O55038 22-109); test: SPR (Biacore), recombinant mouse CXCL13; printed as Affinity (Biacore), nM
T2 construct: Recombinant protein bought from Peprotech (#250-24); In some assays native mouse CXCL13 from organ extracts of TNF-alpha transgenic mice was used; this is said in the assay field; also called recombinant mouse CXCL13; rmuCXCL13
T2 sequence: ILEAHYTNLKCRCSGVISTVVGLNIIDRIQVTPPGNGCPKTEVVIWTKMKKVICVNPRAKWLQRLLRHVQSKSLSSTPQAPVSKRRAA

human CXCL13 [3] = molecular target: T1, human CXCL13; test: SPR (BIACORE), recombinant human CXCL13, methods similar to Example 1; printed as Affinity, nM
Protocol: (§1) Chemokines were immobilized on a C1 chip in Acetate buffer (pH=5) with human CXCL13 at 1 μg/ml, mouse CXCL13 at 0.3 μg/ml, and negative control SDF-1α at 0.5 μg/ml. 3D2 and 3C9 were diluted in HBS-EP buffer by two-fold from 100 nM to 0.78 nM and from 38 nM to […].

mouse CXCL13 [4] = molecular target: T2, mouse CXCL13; test: SPR (BIACORE), recombinant mouse CXCL13, methods similar to Example 1; printed as Affinity, nM
Protocol: as §1

mouse CXCL13 [5] = molecular target: T2, mouse CXCL13; test: SPR (BIACORE), recombinant chemokine immobilized on C1 chip, antibody in solution; printed as Affinity, nM
Protocol: as §1

human CXCL13 [6] = molecular target: T1, human CXCL13; test: as above
Protocol: as §1

human CXCL13 [7] = molecular target: T1, human CXCL13; test: Specificity ELISA on plate-coated recombinant human CXCL13, OD 450/570, four-parameter sigmoidal fit
Protocol: (§2) Hybridoma clones were screened by ELISA for binding to human and mouse CXCL13 protein. ELISA plates were coated with about 100 nM of human (Peprotech: #300-47) or mouse (Peprotech: #250-24) CXCL13 protein overnight at room temperature (RT). […] The plates were washed and developed with tetramethylbenzidine (TMB) substrate reagents A and B (BD Biosciences: #555214) mixed at equal volumes for 15 minutes in the dark and read at 450/570 wavelengths. Two positive hybridoma clones, labelled “3D2” and “3C9”, both mouse IgG1 antibodies, were selected for further characterization.
(§3) Specificity of the hybridoma-produced mouse anti-human antibodies, 3D2 and 3C9, was assessed by ELISA (as described above) on a panel that included recombinant chemokines (Peprotech: mouse and human CXCL13, human IL-8/CXCL8 (#200-08), human IP-10/CXCL10 (#200-10), human MIG/CXCL9 (#300-26), human SDF-1alpha/CXCL12 (#300-28A) and cynomolgus monkey CXCL13) as well as several non-specific control antigens (recombinant human C35, streptavidin (Thermo: #21122), bovine serum albumin (BSA) (SeraCore: #AP-4510-01)), human serum albumin (HAS) (Sigma: #A8763), insulin (Gibco: #12585-014), and hemoglobin (Sigma: #H7379).

mouse CXCL13 [8] = molecular target: T2, mouse CXCL13; test: Specificity ELISA on plate-coated recombinant mouse CXCL13, OD 450/570, four-parameter sigmoidal fit
Protocol: as §2, §3

human CXCL13 [9] = molecular target: T1, human CXCL13; test: Specificity ELISA on recombinant human CXCL13 coated at 100 nM, OD 450/570, four-parameter sigmoidal fit
Protocol: (§4) Each data point represents mean of triplicate measurements. EC50 values were calculated from four-parameter sigmoidal curve fit (R² for the curves that produced EC50 values were 0.99).

cynomolgus monkey CXCL13 [10] = molecular target: T3, cynomolgus monkey CXCL13 (cynomolgus monkey, UniProt O43927 23-104 (human entry), limits assumed); test: Specificity ELISA on plate-coated recombinant cynomolgus monkey CXCL13, OD 450/570, four-parameter sigmoidal fit
T3 construct: Recombinant; also called recombinant cynomolgus monkey CXCL13
T3 chain: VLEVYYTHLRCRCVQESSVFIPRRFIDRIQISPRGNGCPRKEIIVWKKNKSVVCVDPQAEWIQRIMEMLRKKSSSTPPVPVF
Protocol: as §2, §3

cynomolgus monkey CXCL13 [11] = molecular target: T3, cynomolgus monkey CXCL13; test: Specificity ELISA on recombinant cynomolgus monkey CXCL13 coated at 100 nM, OD 450/570, four-parameter sigmoidal fit
Protocol: as §4

mouse CXCL13 [12] = molecular target: T2, mouse CXCL13; test: Capture Epitope Competition ELISA: native mouse CXCL13 captured with MAb 470; unlabeled competitor inhibits binding of 3.3 nM biotin-3D2; four-parameter fit
Protocol: For mouse ELISA, mouse CXCL13 (1:40 dilution of TNF-Tg organ extract) was captured with 33 nM MAb 470 and detected with 3.3 nM biotin-3D2. Each data point represents an average of duplicate measurements from one of at least three independent experiments. […] Curves shown in FIGS. 17A-B were fitted using four-parameter sigmoidal curve fit (R²=0.99).

human CXCL13 [13] = molecular target: T1, human CXCL13; test: Capture Epitope Competition ELISA: recombinant human CXCL13 captured with MAb 801; unlabeled 3D2 inhibits binding of biotin-3C9; percent maximal response, four-parameter fit
Protocol: (§5) Capture Epitope Competition ELISA was used to assess 3D2 binding to native human and mouse CXCL13. In this assay, native human CXCL13 was obtained from supernatants collected from human IFN-gamma-stimulated THP-1 cells. […] The plate was then incubated with biotinylated 3C9 in the presence of various amounts of unlabeled 3D2. […] As evident from FIG. 3A, 3D2 strongly bound to both native and recombinant human CXCL13 producing statistically similar EC50 values.

mouse CXCL13 [14] = molecular target: T2, mouse CXCL13; test: Capture Epitope Competition ELISA: recombinant mouse CXCL13 captured with MAb 470; unlabeled 3D2 inhibits binding of biotin-3D2; percent maximal response, four-parameter fit
Protocol: (§6) Mouse CXCL13-rich organ extracts from TNF-alpha transgenic mice were used as sources of native mouse CXCL13. Mouse CXCL13 (1:40 dilution of TNF-Tg organ extract or 0.5 nM rmuCXCL13) was captured with 33 nM MAb 470 and detected with 3.3 nM biotin-3D2. The chemokine from the extracts (and recombinant mouse CXCL13 which was used as a control) was captured on the ELISA plate by MAb 470. The plate was then incubated with biotinylated 3D2 in the presence of various amounts of unlabeled 3D2.

human CXCL13 [15] = molecular target: T1, human CXCL13; test: Capture Epitope Competition ELISA: native human CXCL13 (THP-1 supernatant) captured with MAb 801; unlabeled 3D2 inhibits binding of biotin-3C9; percent maximal response, four-parameter fit
Protocol: as §5

mouse CXCL13 [16] = molecular target: T2, mouse CXCL13; test: Capture Epitope Competition ELISA: native mouse CXCL13 (TNF-Tg organ extract) captured with MAb 470; unlabeled 3D2 inhibits binding of biotin-3D2; percent maximal response, four-parameter fit
Protocol: as §6

human CXCL13 [17] = molecular target: T1, human CXCL13; test: Specificity ELISA on recombinant human CXCL13 coated at 100 nM, OD 450/570, four-parameter sigmoidal fit; remark: listed apart in the source
cynomolgus monkey CXCL13 [18] = molecular target: T3, cynomolgus monkey CXCL13; test: Specificity ELISA on recombinant cynomolgus monkey CXCL13 coated at 100 nM, OD 450/570, four-parameter sigmoidal fit
[19] = molecular target: T4, human CXCL13 15-mer peptide YTSLRCRCVQESSVF (human); test: ProArray Ultra peptide microarray of 15-mer human CXCL13 peptides, fluorescent secondary antibody
T4 peptide: YTSLRCRCVQESSVF
Protocol: In this project, the determination of peptide-antibody binding was performed by incubation of serum samples with a ProArray Ultra™ peptide microarray. This peptide array was generated as 15-mer peptides overlapping by 10 amino acids from the human CXCL13 primary sequence. The CXCL13 array contained sixteen unique peptides. […] After several washing steps the ProArray Ultra™ arrays were dried and scanned using a high-resolution fluorescence microarray scanning system.

mouse CXCL13 [20] = molecular target: T2, mouse CXCL13; test: Specificity ELISA on recombinant mouse CXCL13 coated at 100 nM, OD 450/570, four-parameter sigmoidal fit
Protocol: For specificity ELISA, recombinant human, cynomolgus monkey, and mouse CXCL13 were each coated at 100 nM. […] The data points for each chemokine represents the mean of triplicate measurements. EC50 values were calculated from four-parameter sigmoidal curve fit (R² for the curves that produced EC50 values were 0.99).

mouse CXCL13 [21] = molecular target: T2, mouse CXCL13; test: as above; remark: listed apart in the source
Protocol: as §4

Kd (human CXCL13 [1]): 13 nM
Kd (mouse CXCL13 [2]): 159 nM
Kd (human CXCL13 [3]): 13 nM
Kd (mouse CXCL13 [4]): 159 nM
Kd (mouse CXCL13 [5]): 159 nM
Kd (human CXCL13 [6]): 12.9 nM
EC50 (human CXCL13 [7]): 1.1 nM
EC50 (mouse CXCL13 [8]): 0.98 nM
EC50 (human CXCL13 [9]): 0.2 nM
EC50 (cynomolgus monkey CXCL13 [10]): 0.8 nM
EC50 (cynomolgus monkey CXCL13 [11]): 8.9 nM
EC50 (mouse CXCL13 [12]): 11.2 nM
EC50 (human CXCL13 [13]): 0.46 nM
EC50 (mouse CXCL13 [14]): 12.5 nM
EC50 (human CXCL13 [15]): 0.13 nM
EC50 (mouse CXCL13 [16]): 11.2 nM
B1: 3D2 (antibody, mouse IgG1, V domains shown)
VH: EVQLQESGPGILQPSQTLNLTCSFSGFSLSTFGMGVGWIRQPSGKGLEWLAHIWWDDDRRYNPALKSRLTISKETSKNQVFLKIANVDTADTATYYCTRIAGYYGSRDWFAYWGQGTTVTVSS
VL: DIVLTQSPASLAVSLGQRATISCRASESVDNSGISFMHWYQQKPGQPPKLLIFRASDLESGIPARFSGSGSRTDFTLTVNPVETDDVATYFCQQSNKDPWTFGGGTKLEIK
notes: Hybridoma-produced mouse IgG1; also called mouse anti-human CXCL13 antibody 3D2; H1609/L0293

Kd (human CXCL13 [1]): 11.4 nM
EC50 (human CXCL13 [17]): 0.07 nM
EC50 (cynomolgus monkey CXCL13 [18]): 0.51 nM
B2: MAb 1476 (antibody, V domains shown)
VH: B1 VH
VL: B1 VL
notes: Chimeric IgG1: 3D2 variable domains (H1609/L0293) on human gamma 1 heavy chain constant and human kappa constant; also called chimeric 3D2

Kd (human CXCL13 [1]): 5.1 nM
Kd (mouse CXCL13 [2]): 8.1 nM
binding result [19]: binds
Kd (human CXCL13 [3]): 5.1 nM
Kd (mouse CXCL13 [4]): 8.1 nM
EC50 (human CXCL13 [17]): 0.03 nM
EC50 (mouse CXCL13 [20]): 0.09 nM
EC50 (cynomolgus monkey CXCL13 [18]): 0.04 nM
EC50 (mouse CXCL13 [12]): 6 nM
B3: MAb 5261 (antibody, V domains shown)
VH: QVQLQESGPGLVKPSETLSLTCTVSGFSLSTFGMGVGWIRQPPGKGLEWIAHIWWDDDRRYNPALKSRVTISKDTSKNQFSLKLSSVTAADTAVYYCARIAGYYGSRDWFAYWGQGTTVTVSS
VL: DIQMTQSPSSLSASVGDRVTITCRASESVDNMGISFMHWYQQKPGKAPKLLIFRASDLESGVPSRFSGSGSGTDFTLTISSLQPEDFATYYCQQSNKDPWTFGQGTKLEIK
notes: Humanized

Kd (human CXCL13 [3]): 4.5 nM
Kd (mouse CXCL13 [4]): 4.2 nM
EC50 (human CXCL13 [9]): 0.2 nM
EC50 (mouse CXCL13 [21]): 3.4 nM
EC50 (cynomolgus monkey CXCL13 [11]): 0.3 nM
B4: MAb 5378 (antibody, V domains shown)
VH: B3 VH
VL: B3 VL
notes: also called H5188/L5153

Kd (human CXCL13 [1]): 14.5 nM
Kd (mouse CXCL13 [2]): 59.2 nM
EC50 (human CXCL13 [17]): 0.03 nM
EC50 (mouse CXCL13 [20]): 2.1 nM
EC50 (cynomolgus monkey CXCL13 [18]): 0.06 nM
EC50 (mouse CXCL13 [12]): 24.3 nM
B5: MAb 5080 (antibody, human IgG1, V domains shown)
VH: B3 VH
VL: B3 VL with M32S, R65G, G72R
notes: also called H2177/L5055

— US20160002325A1 (VACCINEX, published 2016)
